Earlier results, collected in article PMC9241073.
Where two headings read alike, the source gives them in different places.

Assays:
PAK1 (Homo sapiens) [1] = molecular target: PAK1 (Homo sapiens) (UniProt Q13153)
PAK1 (Homo sapiens) [2] = molecular target: PAK1 (Homo sapiens) (UniProt Q13153); remark: listed apart in the source

Chain of UniProt Q13153 (Q13153 2-545): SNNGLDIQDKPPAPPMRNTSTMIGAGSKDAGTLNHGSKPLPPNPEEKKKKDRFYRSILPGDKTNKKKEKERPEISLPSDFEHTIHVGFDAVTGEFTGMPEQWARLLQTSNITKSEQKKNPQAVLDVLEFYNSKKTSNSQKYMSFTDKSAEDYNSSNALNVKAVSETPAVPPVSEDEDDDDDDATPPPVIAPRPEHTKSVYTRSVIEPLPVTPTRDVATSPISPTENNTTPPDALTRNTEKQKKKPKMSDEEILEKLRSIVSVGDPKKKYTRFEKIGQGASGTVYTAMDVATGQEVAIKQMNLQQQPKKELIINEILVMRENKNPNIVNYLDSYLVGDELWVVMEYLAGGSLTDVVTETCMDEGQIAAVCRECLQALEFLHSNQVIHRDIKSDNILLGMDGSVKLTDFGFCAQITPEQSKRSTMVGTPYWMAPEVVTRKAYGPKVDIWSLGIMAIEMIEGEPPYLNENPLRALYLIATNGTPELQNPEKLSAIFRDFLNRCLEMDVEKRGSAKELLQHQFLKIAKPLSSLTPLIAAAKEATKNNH

Kd (PAK1 (Homo sapiens) [1]): > 1000 nM
Kd (PAK1 (Homo sapiens) [2]): > 2000 nM
Substance: CDC42 (from UniProt P60953)
